Reference: patent US20070184493

Columns and labels:
[1] = system: substrate designed for detection of Caspase 3 (-DEVD′GIN- cleavage)
[2] = system: substrate designed for detection of Granzyme B (-VGPD′FGR- cleavage)

| Substance | Fluorogenic activity of indicated substrates measured in solution after addition of recombinant enzyme [1] | Fluorogenic activity of indicated substrates measured in solution after addition of recombinant enzyme [2] |
| --- | --- | --- |
| recombinant Caspase 3 | selective cleavage of substrates designed for detection of ... Caspase 3 (-DEVD′GIN- cleavage) protease activities |  |
| recombinant Granzyme B |  | selective cleavage of substrates designed for detection of Granzyme B (-VGPD′FGR- cleavage) |
